Reference: patent publication US20090270312A1, “HIV-I GP41 FUSION PEPTIDES FOR IMMUNOMODULALTION” (priority 2005, published 2009)

Target: TCR on the membrane of A2b T cells (rat)
Assay: acceptor-photobleaching FRET; distance is between Rho on the peptide and FITC on the anti-TCR antibody

AVGIGALFLGFLGAAGSTMGARSMTLTVQARQL (modifications not checked) [FP (full length) conjugated to Rhodamine] showed a donor-acceptor distance inferred from FRET of under 50 Å.
